Assay results as given in PMC12687561 (2025).

Columns and labels:
[1] = target: T1, HHV-6B Putative OX-2 membrane glycoprotein homolog (U85) peptide on HLA-DRA*01:01 / HLA-DRB1*03:01 (human); assay: multimer staining
T1 peptide: KINNLDVDSKLYFHIKH

[2] = target: T2, HHV-6B Large structural phosphoprotein (U11) peptide on HLA-DRA*01:01 / HLA-DRB1*03:01 (human); assay: multimer staining
T2 peptide: SLPSISIDTKRPSADL

B1: U85.1 (TCR)
alpha TRAV13-1 TRAJ29 CDR3: CAASNSGNTPLVF
beta TRBV20-1 TRBJ1-6 CDR3: CGNRVGNSPLHF
[1]
  binding result: recognises

B2: U11.1 (TCR)
alpha TRAV12-1 TRAJ49 CDR3: CVVNIFTGNQFYF
beta TRBV19 TRBJ1-4 CDR3: CASSFRGGEKLFF
[2]
  binding result: recognises

B3: U85.2 (TCR)
alpha TRAV13-1 TRAJ29 CDR3: CAATNSGNTPLVF
beta TRBV20-1 TRBJ1-5 CDR3: CSARRGGGPQHF
[1]
  binding result: recognises
